Here are results for twelve sequences from patent US20250027090.

For data set [1], the target named is T1, thrombin (native human beta-thrombin) (Homo sapiens) (UniProt P00734+P00734). The data set can be described thus: ITC. To be noted: L-DNA (all nucleotides); physiological buffer pH 7.4, 25 C.
Data set [2] addresses T1, thrombin (native human beta-thrombin) (Homo sapiens). Briefly: EMSA. As to conditions: for binding signal: 1 uM thrombin; for Kd: selection buffer, 10% glycerol, room temperature.
Data set [3] concerns the target thrombin (native bovine alpha-thrombin) (Bos taurus) (UniProt P00735+P00735). The data set can be described thus: ITC. To be noted: L-DNA (all nucleotides).
The target of data set [4] is T1, thrombin (native human beta-thrombin) (Homo sapiens). The data set can be described thus: inhibition. As to conditions: L-DNA (all nucleotides); R0 pool, no inhibition up to 8 uM.

A value given as a limit tells only on which side of the number the result lay.

For orientation: Kd means a measure of binding affinity in units of concentration. A high value points to lower affinity. In data set [1], “CGGATCCAGTTACGGATGAACTTGTTGAAACCCAACGGGAGAATCGTTCATTCAGTAAGCTTCGG [L-9-2 aptamer]” gave a Kd of 168 nM.

With “CGGATCCAGTTACGGANNNNNNNNNNNNNNNNNNNNNNNNNNNNNNTTCATTCAGTAAGCTTCGG [R9 L-DNA pool]”, in data set [2] (L-DNA (all nucleotides), 200 nM pool), the binding signal came to 70 % bound. As to “GATGAACTTGTTGAAACCCAACGGGAGAATCGTTCATT [Cy5-L-9-2t aptamer]”, in data set [2] (L-DNA (all nucleotides)), the Kd was 355 nM. In turn, “CGGATCCAGTTACGGAACGCGTTTCAAGACTACCGTGTTTGTTCCGTTCATTCAGTAAGCTTCGG [L-9-1 aptamer]” displayed a Kd in data set [1] of 29 nM.

“CGGATCCAGTTACGGATGAACTTGTTGAAACCCAACGGGAGCCTCGTTCATTCAGTAAGCTTCGGTGG [L-13 aptamer]”: the Kd in data set [1] was found to be 22 nM. In the case of “GATGAACTTGTTGAAACCCAACGGGAGAATCGTTCATT [L-9-2t aptamer]”, the equilibrium dissociation constant (Kd) in data set [1] came out at 251 nM; in data set [3] (~1.7-fold weaker than human thrombin), 426 nM. On to “ACGGAACGCGTTTCAAGACTACCGTGTTTGTTCCGT [Cy5-L-9-1t aptamer]”, for which, in data set [2] (L-DNA (all nucleotides)), the Kd was determined as 21 nM. “GATGAACTTGTTGAAACCCAACGGGAGCCTCGTTCATT [L-13t aptamer]” registered a Kd in data set [1] of 34 nM. Consider “ACGGAACGCGTTTCAAGACTACCGTGTTTGTTCCGT [L-9-1t aptamer]”, for which the Kd in data set [1] turned out to be 39 nM; in data set [3] (~26-fold weaker than human thrombin), 1030 nM.

Sequence “GATGAACTTGTTGAAACCCAACGGGAGCCTCGTTCATT [Cy5-L-13t aptamer]” came in with a Kd in data set [2] (L-DNA (all nucleotides)) of 28 nM. A word on the IC50: it is the concentration that gives 50% inhibition. The low end stands for inhibition by little substance, the high end for a need for much substance. For “CGGATCCAGTTACGGANNNNNNNNNNNNNNNNNNNNNNNNNNNNNNTTCATTCAGTAAGCTTCGG [R0 L-DNA library pool]”, in data set [4], the half-inhibitory concentration (IC50) was > 8000 nM. In the case of “CGGATCCAGTTACGGANNNNNNNNNNNNNNNNNNNNNNNNNNNNNNTTCATTCAGTAAGCTTCGG [R6 D-DNA pool]”, the binding signal in data set [2] came to 70 % bound.
